The assay has as its target human alpha-synuclein monomer (human, UniProt P37840 1-140). Nature of the assay: SPR (Biacore 8K), IgG captured on anti-human Fc, aSyn monomer injected.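 Note: aSyn injected as a dilution series, signal corrected against a reference cell holding an irrelevant IgG, Kd from one-to-one Langmuir kinetic fitting of kon and koff.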 For orientation: SPR reads the build-up and loss of mass on a sensor chip optically.

Experimental: Serial 3-fold dilutions of aSyn were injected at a flow rate of 30 μL/min. Each sample was analyzed using a 3-minute association and a 10-minute dissociation. After each injection, the chip was regenerated using 3 M MgCl₂. Binding response was corrected by subtracting the RU from a flow cell capturing an irrelevant IgG at similar density. A 1:1 Languir model of simultaneous fitting of kₒₙ and koff was used for kinetics analysis.

B1: H1_1_LC2 (antibody, V domains shown)
VH: EVQLVESGGGLVQPGGSLRLSCAASGFTFSKAAMYWVRQAPGKGLELVSRIRTKPNNYATYHADSVKGRFTISRDNSKNTLYLQMNSLRAEDTAVYYCTADMATGDYWGQGTLVTVSS
VL: DIQMTQSPSSLSASVGDRVTITCKASQNINKNLDWYQQKPGKAPKPLIYSTNNLQTGVPSRFSGSGSGTDFTLTISSLQPEDFATYYCYQYKSAWTFGQGTKVEIK
Regarding B1, the Kd (commonly the constant that tells how readily two partners part at equilibrium) worked out at 3.46 nM.

B2: H2_4_LC2 (antibody, V domains shown)
VH: EVQLVESGGGLVQPGGSLRLSCAASGFTFSNAAMYWVRQAPGKGLELVSRIRTKRNNYATYHADSVKGRFTISRDNSKNTLYLQMNSLRAEDTAVYYCTADMATGDYWGQGTLVTVSS
VL: DIQMTQSPSSLSASVGDRVTITCKASQNINKNLDWYQQKPGKAPKPLIYSTNNLQTGVPSRFSGSGSGTDFTLTISSLQPEDFATYYCYQYKSAWTFGQGTKVEIK
On to B2, for which binding was put at a Kd of 8.35 nM.

B3: H1_5_LC2 (antibody, V domains shown)
VH: EVQLVESGGGLVQPGGSLRLSCAASGFKFSKAAMYWVRQAPGKGLELVSRIRTKPNNYATYHADSVKGRFTISRDNSKNTLYLQMNSLRAEDTAVYYCTADMATGDYWGQGTLVTVSS
VL: DIQMTQSPSSLSASVGDRVTITCKASQNINKNLDWYQQKPGKAPKPLIYSTNNLQTGVPSRFSGSGSGTDFTLTISSLQPEDFATYYCYQYKSAWTFGQGTKVEIK
Consider B3, for which the Kd worked out at 4.61 nM.

B4: H2_5_LC2 (antibody, V domains shown)
VH: EVQLVESGGGLVQPGGSLRLSCAASGFTFSNAAMYWVRQAPGKGLELVSRIRTEPNNYATYHADSVKGRFTISRDNSKNTLYLQMNSLRAEDTAVYYCTADMATGDYWGQGTLVTVSS
VL: DIQMTQSPSSLSASVGDRVTITCKASQNINKNLDWYQQKPGKAPKPLIYSTNNLQTGVPSRFSGSGSGTDFTLTISSLQPEDFATYYCYQYKSAWTFGQGTKVEIK
As to B4, binding was characterised by a dissociation constant (Kd) of 5.5 nM.

B5: H3_6_LC2 (antibody, V domains shown)
VH: EVQLVESGGGLVQPGGSLRLSCAASGFTFSNAAMYWVRQAPGKGLELVSRIRTKPNNYATYHADSVKGRFTISRDNSKNTLYLQMNSLRAEDTAVYYCTANMRKGDYWGQGTLVTVSS
VL: DIQMTQSPSSLSASVGDRVTITCKASQNINKNLDWYQQKPGKAPKPLIYSTNNLQTGVPSRFSGSGSGTDFTLTISSLQPEDFATYYCYQYKSAWTFGQGTKVEIK
B5 displayed a Kd of 10.3 nM.

B6: H3_5_LC2 (antibody, V domains shown)
VH: EVQLVESGGGLVQPGGSLRLSCAASGFTFSNAAMYWVRQAPGKGLELVSRIRTKPNNYATYHADSVKGRFTISRDNSKNTLYLQMNSLRAEDTAVYYCTADFARGDYWGQGTLVTVSS
VL: DIQMTQSPSSLSASVGDRVTITCKASQNINKNLDWYQQKPGKAPKPLIYSTNNLQTGVPSRFSGSGSGTDFTLTISSLQPEDFATYYCYQYKSAWTFGQGTKVEIK
As for B6, binding was put at a Kd of 3.84 nM.

B7: HC2_L1_2 (antibody, V domains shown)
VH: EVQLVESGGGLVQPGGSLRLSCAASGFTFSNAAMYWVRQAPGKGLELVSRIRTKPNNYATYHADSVKGRFTISRDNSKNTLYLQMNSLRAEDTAVYYCTADMATGDYWGQGTLVTVSS
VL: DIQMTQSPSSLSASVGDRVTITCKASQIINQILDWYQQKPGKAPKPLIYSTNNLQTGVPSRFSGSGSGTDFTLTISSLQPEDFATYYCYQYKSAWTFGQGTKVEIK
Molecule B7 returned a Kd of 2.45 nM.

B8: H1_6_LC2 (antibody, V domains shown)
VH: EVQLVESGGGLVQPGGSLRLSCAASGFNFSKAAMYWVRQAPGKGLELVSRIRTKPNNYATYHADSVKGRFTISRDNSKNTLYLQMNSLRAEDTAVYYCTADMATGDYWGQGTLVTVSS
VL: DIQMTQSPSSLSASVGDRVTITCKASQNINKNLDWYQQKPGKAPKPLIYSTNNLQTGVPSRFSGSGSGTDFTLTISSLQPEDFATYYCYQYKSAWTFGQGTKVEIK
With B8, binding was put at a Kd of 3.91 nM.

B9: H3_1_LC2 (antibody, V domains shown)
VH: EVQLVESGGGLVQPGGSLRLSCAASGFTFSNAAMYWVRQAPGKGLELVSRIRTKPNNYATYHADSVKGRFTISRDNSKNTLYLQMNSLRAEDTAVYYCTANMATGDYWGQGTLVTVSS
VL: DIQMTQSPSSLSASVGDRVTITCKASQNINKNLDWYQQKPGKAPKPLIYSTNNLQTGVPSRFSGSGSGTDFTLTISSLQPEDFATYYCYQYKSAWTFGQGTKVEIK
The molecule B9 returned a Kd of 4.79 nM.

B10: H3_2_LC2 (antibody, V domains shown)
VH: EVQLVESGGGLVQPGGSLRLSCAASGFTFSNAAMYWVRQAPGKGLELVSRIRTKPNNYATYHADSVKGRFTISRDNSKNTLYLQMNSLRAEDTAVYYCTANMAKGDYWGQGTLVTVSS
VL: DIQMTQSPSSLSASVGDRVTITCKASQNINKNLDWYQQKPGKAPKPLIYSTNNLQTGVPSRFSGSGSGTDFTLTISSLQPEDFATYYCYQYKSAWTFGQGTKVEIK
On to B10, for which binding was put at a Kd of 4.92 nM.

B11: H1_2_LC2 (antibody, V domains shown)
VH: EVQLVESGGGLVQPGGSLRLSCAASGFRFSKAAMYWVRQAPGKGLELVSRIRTKPNNYATYHADSVKGRFTISRDNSKNTLYLQMNSLRAEDTAVYYCTADMATGDYWGQGTLVTVSS
VL: DIQMTQSPSSLSASVGDRVTITCKASQNINKNLDWYQQKPGKAPKPLIYSTNNLQTGVPSRFSGSGSGTDFTLTISSLQPEDFATYYCYQYKSAWTFGQGTKVEIK
B11: binding was characterised by a dissociation constant (Kd) of 3.53 nM.

B12: HC2_L2_2 (antibody, V domains shown)
VH: EVQLVESGGGLVQPGGSLRLSCAASGFTFSNAAMYWVRQAPGKGLELVSRIRTKPNNYATYHADSVKGRFTISRDNSKNTLYLQMNSLRAEDTAVYYCTADMATGDYWGQGTLVTVSS
VL: DIQMTQSPSSLKSSVGDRVTITCKASQNINKNLDWYQQKPGKAPKPLIYRTKNLQTGVPSRFSGSGSGTDFTLTISSLQPEDFATYYCYQYKSAWTFGQGTKVEIK
In the case of B12, the Kd was determined as 2.01 nM.

B13: H2_2_LC2 (antibody, V domains shown)
VH: EVQLVESGGGLVQPGGSLRLSCAASGFTFSNAAMYWVRQAPGKGLELVSRIRTQRNNYATYHADSVKGRFTISRDNSKNTLYLQMNSLRAEDTAVYYCTADMATGDYWGQGTLVTVSS
VL: DIQMTQSPSSLSASVGDRVTITCKASQNINKNLDWYQQKPGKAPKPLIYSTNNLQTGVPSRFSGSGSGTDFTLTISSLQPEDFATYYCYQYKSAWTFGQGTKVEIK
Consider B13, for which the affinity, expressed as Kd, was 5.93 nM.

B14: H2_1_LC2 (antibody, V domains shown)
VH: EVQLVESGGGLVQPGGSLRLSCAASGFTFSNAAMYWVRQAPGKGLELVSRIRTKPNNFATYHADSVKGRFTISRDNSKNTLYLQMNSLRAEDTAVYYCTADMATGDYWGQGTLVTVSS
VL: DIQMTQSPSSLSASVGDRVTITCKASQNINKNLDWYQQKPGKAPKPLIYSTNNLQTGVPSRFSGSGSGTDFTLTISSLQPEDFATYYCYQYKSAWTFGQGTKVEIK
For the molecule B14, the Kd worked out at 6.18 nM.

B15: HC2_L2_1 (antibody, V domains shown)
VH: EVQLVESGGGLVQPGGSLRLSCAASGFTFSNAAMYWVRQAPGKGLELVSRIRTKPNNYATYHADSVKGRFTISRDNSKNTLYLQMNSLRAEDTAVYYCTADMATGDYWGQGTLVTVSS
VL: DIQMTQSPSSLSASVGDRVTITCKASQNINKNLDWYQQKPGKAPKPLIYSTNKLKTGVPSRFSGSGSGTDFTLTISSLQPEDFATYYCYQYKSAWTFGQGTKVEIK
In the case of B15, the Kd worked out at 1.78 nM.

B16: HC2_L1_1 (antibody, V domains shown)
VH: EVQLVESGGGLVQPGGSLRLSCAASGFTFSNAAMYWVRQAPGKGLELVSRIRTKPNNYATYHADSVKGRFTISRDNSKNTLYLQMNSLRAEDTAVYYCTADMATGDYWGQGTLVTVSS
VL: DIQMTQSPSSLSASVGDRVTITCKASQNINNNLDWYQQKPGKAPKPLIYSTNNLKTGVPSRFSGSGSGTDFTLTISSLQPEDFATYYCYQYKSAWTFGQGTKVEIK
B16 had a Kd of 1.2 nM.

B17: H2_6_LC2 (antibody, V domains shown)
VH: EVQLVESGGGLVQPGGSLRLSCAASGFTFSNAAMYWVRQAPGKGLELVSRIRTKPKNYATYHADSVKGRFTISRDNSKNTLYLQMNSLRAEDTAVYYCTADMATGDYWGQGTLVTVSS
VL: DIQMTQSPSSLSASVGDRVTITCKASQNINKNLDWYQQKPGKAPKPLIYSTNNLQTGVPSRFSGSGSGTDFTLTISSLQPEDFATYYCYQYKSAWTFGQGTKVEIK
Consider B17, for which the Kd came to 7.75 nM.

B18: H2_3_LC2 (antibody, V domains shown)
VH: EVQLVESGGGLVQPGGSLRLSCAASGFTFSNAAMYWVRQAPGKGLELVSRIRTERNNYATYHADSVKGRFTISRDNSKNTLYLQMNSLRAEDTAVYYCTADMATGDYWGQGTLVTVSS
VL: DIQMTQSPSSLSASVGDRVTITCKASQNINKNLDWYQQKPGKAPKPLIYSTNNLQTGVPSRFSGSGSGTDFTLTISSLQPEDFATYYCYQYKSAWTFGQGTKVEIK
Regarding B18, the affinity, expressed as Kd, was 4.76 nM.

B19: H1_4_LC2 (antibody, V domains shown)
VH: EVQLVESGGGLVQPGGSLRLSCAASGFTFNKAAMYWVRQAPGKGLELVSRIRTKPNNYATYHADSVKGRFTISRDNSKNTLYLQMNSLRAEDTAVYYCTADMATGDYWGQGTLVTVSS
VL: DIQMTQSPSSLSASVGDRVTITCKASQNINKNLDWYQQKPGKAPKPLIYSTNNLQTGVPSRFSGSGSGTDFTLTISSLQPEDFATYYCYQYKSAWTFGQGTKVEIK
Turning to B19, the Kd came to 3.55 nM.

B20: H3_4_LC2 (antibody, V domains shown)
VH: EVQLVESGGGLVQPGGSLRLSCAASGFTFSNAAMYWVRQAPGKGLELVSRIRTKPNNYATYHADSVKGRFTISRDNSKNTLYLQMNSLRAEDTAVYYCSADFAKGDYWGQGTLVTVSS
VL: DIQMTQSPSSLSASVGDRVTITCKASQNINKNLDWYQQKPGKAPKPLIYSTNNLQTGVPSRFSGSGSGTDFTLTISSLQPEDFATYYCYQYKSAWTFGQGTKVEIK
As to B20, binding was put at a Kd of 4.64 nM.

B21: H1_3_LC2 (antibody, V domains shown)
VH: EVQLVESGGGLVQPGGSLRLSCAASGFTFSRAAMYWVRQAPGKGLELVSRIRTKPNNYATYHADSVKGRFTISRDNSKNTLYLQMNSLRAEDTAVYYCTADMATGDYWGQGTLVTVSS
VL: DIQMTQSPSSLSASVGDRVTITCKASQNINKNLDWYQQKPGKAPKPLIYSTNNLQTGVPSRFSGSGSGTDFTLTISSLQPEDFATYYCYQYKSAWTFGQGTKVEIK
In the case of B21, binding was characterised by a dissociation constant (Kd) of 4.04 nM.

B22: H3_3_LC2 (antibody, V domains shown)
VH: EVQLVESGGGLVQPGGSLRLSCAASGFTFSNAAMYWVRQAPGKGLELVSRIRTKPNNYATYHADSVKGRFTISRDNSKNTLYLQMNSLRAEDTAVYYCAAAMARGDYWGQGTLVTVSS
VL: DIQMTQSPSSLSASVGDRVTITCKASQNINKNLDWYQQKPGKAPKPLIYSTNNLQTGVPSRFSGSGSGTDFTLTISSLQPEDFATYYCYQYKSAWTFGQGTKVEIK
Take B22: the Kd came out at 5.3 nM.
